Measurements taken from article PMC7809799, “A microtubule‐LUZP1 association around tight junction promotes epithelial cell apical constriction” (The EMBO Journal, 2020).

Legend:
Flag‐LUZP1 (mouse) = Flag‐LUZP1 (mouse) (UniProt Q8R4U7); test: pull-down; in vitro direct binding assay: Flag‐LUZP1 on anti‐Flag M2 affinity gel beads, GST‐MLC 0–8.0 μM in HBS, RT 60 min; washed in 300 mM NaCl, 50 mM Tris–HCl pH 7.5, 1 mM EDTA, 1 mM DTT; immunoblot densitometry, Michaelis–Menten fit
HA‐PP1c β/δ = HA‐PP1c β/δ (UniProt P62141 1-327); test: cell-based or functional assay
[1] = biological target: Taxol‐stabilized microtubules (tubulin, Cytoskeleton Inc. #T240) (UniProt P02550); test: co-sedimentation; MT co‐sedimentation: Flag‐LUZP1 (10 μl of 7.7 nM in 20 μl) with 0–6 μM polymerized tubulin, GTP and Taxol, PME buffer/HBS, RT 60 min; 434,513 g, 25°C, 20 min; immunoblot densitometry, Michaelis–Menten fit

| Kd (Flag‐LUZP1 (mouse)) [µM] | in vitro MLC phosphorylation assay with 1 μg MTs added (25 ng GST‐MLC, 4 ng GST‐ROCK1 catalytic domain, 1 μg GST‐PP1c β/δ, 0–5 μg GST‐LUZP1): ppMLC/MLC ratio relative to the control (HA‐PP1c β/δ) | in vitro Merlin phosphorylation assay with 1 μg MTs added (100 ng GST‐Merlin, 2 pg PAK1, 1 μg GST‐PP1c β/δ, 0–5 μg GST‐LUZP1): pMerlin/Merlin ratio relative to the control (HA‐PP1c β/δ) | Kd [1] [µM] | Molecule |
| --- | --- | --- | --- | --- |
| 4.88 | – | – | – | GST‐tagged di‐dephosphomimetic myosin light chain (T18A, S19A) (natural protein) |
| 4.04 | – | – | – | GST‐tagged wild‐type myosin light chain (from UniProt Q3THE2 1-172) (natural protein) |
| 0.85 | – | – | – | GST‐tagged di‐phosphomimetic myosin light chain (T18D, S19D) (natural protein) |
| – | 2.87 ratio relative to the control | 8.32 ratio relative to the control | 0.78 | GFP‐LUZP1 (natural protein, mouse, UniProt Q8R4U7 1-1068, looked up) MAELTNYKDAASNRHLRFKLQSLSRRLDELEEATKNLQRAEDELLDLQDKVIQAEGSDSSTLAEIEVLRQRVLKIEGKDEEIKRAEDLCHTMKEKLEEEENLTRELKSEIERLQKRMVDLEKLEEALSRSKNECSQLCLSLNEERNLTKKISSELEMLRVKVKELESSEDRLDKTEQSLVSELEKLKSLTLSFVNERKYLNEKEKENEKIIKELTQKLEQNKKMNRDHMRNASTFLERNDLRIEDGISSTLSSKESKRKGSLDYLKQVENETRDKSENEKNRNQEDNKVKDLNQEIEKLKTQIKHFESLEEELKKMRAKNNDLQDNYLTELNRNRSLASQLEEIKLQVRKQKELGNGDIEGEDAFLLGRGRHERTKLKGHGSEASVSKHTSRELSPQHKRERLRNREFALSNEHYSLSSKQASSPVFTNKRAAKASNMGMGTDSGTQETKRTEDRFAPGSSHSEGKRGREQPSVLSRYPPAAQEHTKVWKGAPKPGTESGLKGKVEKTTRTFSDSTHVSVPNDIVGKGDKTSDLSSEAHCGKRGQVPGHASQGTQAVESSCSKAIGALSSSQKASSEGLSKGKKTANGLAADANFSNSKAPILSKYPYSSRSQENILQGFSLPNKEGVDQPVAVVMEDSSQHEALRCRVIKSSGREKPDSDDDLDIESFVTAKLVNTTITPEPEPKPQPNSREKVKSRGGTRTALFENDKNAAIENDSVKPTRPSSNAIEFPDANCAGVKNQRPFSPREALRSRAIIKPVIIDKDVKKIMGGSGTEVVLEKQKSTSKSVTSKVTSSITIYPSDSSGPRAVPSEAPRERHTSTSNIQVGPPELTAISNHVSSPLELSIHKHDITLQLTEAERVGDGSPKNRAEMVVSRSSILIKPSESVEKNSHVPPAETIRWKSHSASSDSRHITVRNAWKSKRDLKCSEDPPTGIGRNMEATNAYTQRPCTDFLELEQPRSQPSEQGARRVGNSGDAPELSPRRTQSSLTASEVLTRRDRMGGAITAASCNHSSSMEEGEDSTFVTSRRIHNPLEHSELPGKQGLPEPEPVWTEERLHPAKPYAEED |
